From article PMC2063913 (The Journal of Cell Biology, 2006) come the findings set out here.

Sequences and labels used below:
T1: Sfi1p fragment K246-E677 (15-repeat construct) (S. cerevisiae, UniProt Q12369 246-677)
T1 sequence (looked up): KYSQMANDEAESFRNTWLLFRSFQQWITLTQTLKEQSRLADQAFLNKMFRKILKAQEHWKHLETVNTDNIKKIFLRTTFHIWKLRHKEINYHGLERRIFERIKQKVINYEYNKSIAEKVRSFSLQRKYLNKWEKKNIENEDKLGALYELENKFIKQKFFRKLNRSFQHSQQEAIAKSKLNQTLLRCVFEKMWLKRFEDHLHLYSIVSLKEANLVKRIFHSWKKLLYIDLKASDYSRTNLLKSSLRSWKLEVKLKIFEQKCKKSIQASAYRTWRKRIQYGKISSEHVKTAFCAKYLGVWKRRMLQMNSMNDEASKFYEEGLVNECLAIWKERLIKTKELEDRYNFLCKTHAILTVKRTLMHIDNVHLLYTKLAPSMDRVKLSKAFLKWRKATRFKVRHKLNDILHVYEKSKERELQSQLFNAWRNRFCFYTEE

B1: Sfi1p fragment N218-H306 (three repeats; crystal 2 construct) (domain or fragment, S. cerevisiae, UniProt Q12369 218-306, looked up)
chain: NEEANRFANQAKLRVQEAVFYIWSDKTLKYSQMANDEAESFRNTWLLFRSFQQWITLTQTLKEQSRLADQAFLNKMFRKILKAQEHWKH
B2: yeast centrin (Cdc31p) (natural protein, S. cerevisiae)
chain: MSKNRSSLQSGPLNSELLEEQKQEIYEAFSLFDMNNDGFLDYHELKVAMKALGFELPKREILDLIDEYDSEGRHLMKYDDFYIVMGEKILKRDPLDEIKRAFQLFDDDHTGKISIKNLRRVAKELGETLTDEELRAMIEEFDLDGDGEINENEFIAICTDS
B3: Sfi1p fragment K643-E710 (two repeats; crystal 1 construct) (domain or fragment, S. cerevisiae, UniProt Q12369 643-710, looked up)
chain: KLNDILHVYEKSKERELQSQLFNAWRNRFCFYTEECNIQAISKRNYQLEKMVLKKFRERLLEIVKSEE

Assay [1] has as its target B2. In words: crystal structure.
Assay [2] deals with T1, Sfi1p fragment K246-E677 (15-repeat …). In words: native MS.
For assay [3], the target named is B2. In words: crystal structure. This is another data set of the same source.

For orientation: stoichiometry N means a count of units in the complex or per binding partner.

Where “and” joins values, the source holds several entries; their conditions need not be identical. Equal entries are not always repeated. Where two headings read alike, the source gives them in different places.

For B1, the binding result with yeast centrin (Cdc31p) [1] was “binds”. In the case of B2, the “stoichiometry N” value in assay [2] is 15 and 14. As to B3, the binding result with yeast centrin (Cdc31p) [3] is listed as “binds”.
